The target of this data set is HapR (Vibrio cholerae E7946 (El Tor), UniProt Q4F6W7 1-203). Description: EMSA.

B1: HapR BS 2 probe (32 bp) (dsDNA)
DNA 1: AATTGCAATTGATAAATTTCTTGGCTAGGTGT
DNA 2: ACACCTAGCCAAGAAATTTATCAATTGCAATT
modifications: Cy5-dCTP added to the 3' end of one strand by TdT (strand not stated)
Regarding B1, the binding result is “binds”.

B2: HapR BS 1 probe (32 bp) (dsDNA)
DNA 1: TAGGTTTGTTAGTGTTTACTTACTTATTTGGC
DNA 2: GCCAAATAAGTAAGTAAACACTAACAAACCTA
modifications: Cy5-dCTP added to the 3' end of one strand by TdT (strand not stated)
B2: the binding result was “binds”.

Values taken from doi:10.1101/2020.04.16.045526.
